Source: US7611711B2, “VEGFR-3 inhibitor materials and methods” (Vegenics Limited, priority 2001, dated 2009)
Ends that are not written are not given here. GST = glutathione-S-transferase

Molecular target: T1, VEGFR-3/EpoR chimera expressed on BaF3 cells (UniProt P14753+P35916)
T1 construct: expressed in transfected cells; host or cells: BaF3 (IL-3 dependent murine pro-B cells)
T1 sequence (P35916+P14753 with tags, fused parts or gaps): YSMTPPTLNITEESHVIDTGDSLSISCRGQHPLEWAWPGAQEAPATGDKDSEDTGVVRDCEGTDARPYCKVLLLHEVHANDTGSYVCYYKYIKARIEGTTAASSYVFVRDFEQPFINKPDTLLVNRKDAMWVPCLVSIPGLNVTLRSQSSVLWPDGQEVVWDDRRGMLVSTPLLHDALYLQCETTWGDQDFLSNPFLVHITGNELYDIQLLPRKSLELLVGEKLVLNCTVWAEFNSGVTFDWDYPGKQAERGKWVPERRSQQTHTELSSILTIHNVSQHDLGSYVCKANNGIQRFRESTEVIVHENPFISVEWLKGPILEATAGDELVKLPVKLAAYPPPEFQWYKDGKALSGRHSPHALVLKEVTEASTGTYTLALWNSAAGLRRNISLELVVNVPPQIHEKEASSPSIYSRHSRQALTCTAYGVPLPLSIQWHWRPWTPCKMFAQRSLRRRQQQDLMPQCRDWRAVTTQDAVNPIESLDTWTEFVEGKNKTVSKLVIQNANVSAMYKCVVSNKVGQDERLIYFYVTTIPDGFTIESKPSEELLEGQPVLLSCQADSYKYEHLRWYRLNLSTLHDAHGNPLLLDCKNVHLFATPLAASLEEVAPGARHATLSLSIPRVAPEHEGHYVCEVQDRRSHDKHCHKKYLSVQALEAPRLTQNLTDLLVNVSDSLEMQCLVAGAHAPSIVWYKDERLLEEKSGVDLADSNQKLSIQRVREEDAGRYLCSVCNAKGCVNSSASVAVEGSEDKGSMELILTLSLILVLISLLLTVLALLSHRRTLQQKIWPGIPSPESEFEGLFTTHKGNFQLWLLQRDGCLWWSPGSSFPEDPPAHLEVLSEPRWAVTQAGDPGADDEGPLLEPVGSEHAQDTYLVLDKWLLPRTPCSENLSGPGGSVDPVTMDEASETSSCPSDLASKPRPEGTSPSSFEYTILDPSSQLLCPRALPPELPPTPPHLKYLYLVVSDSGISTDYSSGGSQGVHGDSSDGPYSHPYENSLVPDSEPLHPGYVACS
Assay: Bioassay for VEGFR-3 stimulation: viability (MTT) of BaF3 cells expressing a VEGFR-3/EpoR chimera, supplied with VEGF-C
Format: cell-based
Method: For the viability assay, the IL-3 dependent BaF3 cells expressing a VEGFR-3/EpoR chimera (Aschen et al, Eur J Biochem. 267(9):2505-15, 2000) were seeded in 96 well microtiter plates at 15000 cells/well in triplicates in the absence of IL-3 but supplied with the lOOng/ml VEGF-C and a range of concentrations of the selected peptides fused with GST. Cells were cultured for 48 h, during which time the cells incubated in cell culture medium alone had died. The viability of the cells was determined by the MTT reagent, which was added at a concentration of 0.5 mg/ml. After 2 h an equal volume of cell lysis solution was added (10%SDS/10 mM HCl) and allowed to incubate overnight at 37° C. The absorbance was measured at 540 nm.
The effects of the peptides fused to GST on the growth of BaF3-R3/EpoR were assessed using the MTT assay as described above and are depicted in FIG. 1. In this experiment, GST- CGYWLTIWGC (SEQ ID NO: 35) fusion protein was used for the inhibition of VEGF-C binding to VEGFR-3 expressed on BaF3 cells. In this experiment, a 20 uM concentration of the fusion protein sufficed to inhibit the binding completely as measured by the MTT cell death assay.

Substance	competition with VEGF-C binding to VEGFR-3 expressed on BaF3 cells (in words) (BaF3 cells expressing VEGFR-3)	concentration that sufficed to inhibit VEGF-C binding to VEGFR-3 completely, as measured by the MTT cell death assay (GST fusion protein, BaF3-R3/EpoR cells, no IL-3, VEGF-C supplied, 48 h) [µM]	concentration sufficient to completely inhibit VEGF-C/D binding to VEGFR-3 expressed on BaF3 cells (GST fusion protein, BaF3 cells) [µM]
CGYWLTIWGC (isolated peptide)	competes with VEGF-C binding to VEGFR-3		
GST-CGYWLTIWGC: fusion protein of glutathione-S-transferase (GST) with peptide CGYWLTIWGC, produced in E. coli from pGEX-2T ({GST}-CGYWLTIWGC; cysteine pairing not given here; also: GST fusion, dimerising)		20	20
